Square brackets hold non-standard residues; d marks the D form. Ends that are not written are not given here. pS = N[C@@H](COP(=O)(O)O)C(=O)O
These binders were tested against T1, BRCA1 BRCT domains (UniProt P38398 1646-1859) (assay: native MS; peak fractions from gel filtration, 15 μM protein, 300 mM ammonium acetate pH 7.6, nano-electrospray). Details: both partners purified.
T1 construct: BRCA1 tandem BRCT domains (BRCT1 and BRCT2); construct limits are in the Supplemental Information; also called BRCT domain only; source: purified; construction and purification are described in the Supplemental Information

stoichiometry N | Binder
1 | PTRVS[pS]PVFGAT [CtIP phosphopeptide]
1 | GFGEYSR[pS]PTF (Abraxas C-terminal peptide, printed as GFGEYSRpSPTF; source: synthesized peptide) [Abraxas single phosphorylated peptide Ab1p]
1 | ISRST[pS]PTFNKQTK [Bach1 phosphopeptide]

Each binder was assayed against T1, BRCA1 BRCT domains (assay: SEC; BRCT and peptide mixed 1:3 (molar), final 1 mg/ml (about 40 μM), Superdex 75 10/300, Buffer A, 0.5 ml/min). Details: both partners purified.

binding result | Binder
binds | GFGEA[pS]R[pS]PTF (peptide, UniProt Q6UWZ7 399-409, looked up, Abraxas C-terminal peptide, as Ab2p (GFGEYpSRpSPTF) with Y403A) [Abraxas peptide Ab2p(Y403A)]
binds | GFGEYDR[pS]PTF (peptide, UniProt Q6UWZ7 399-409, looked up, Abraxas C-terminal peptide, as Ab1p (GFGEYSRpSPTF) with the phosphomimetic S404D) [Abraxas peptide Ab1p (S404D)]
binds | GFGEYPR[pS]PTF (peptide, UniProt Q6UWZ7 399-409, looked up, Abraxas C-terminal peptide, as Ab1p (GFGEYSRpSPTF) with S404P) [Abraxas peptide Ab1p (S404P)]
binds | A[pS]R[pS]PTF (peptide, UniProt Q6UWZ7 403-409, looked up, also called Abraxas(Y403A)_short) [Abraxas peptide Ab2p(Y403A_short)]

Continued, binder first:

Binder | binding result
GDGEY[pS]R[pS]PTF (peptide, UniProt Q6UWZ7 399-409, looked up, Abraxas C-terminal peptide, as Ab2p (GFGEYpSRpSPTF) with F400D) [Abraxas peptide Ab2p (F400D)] | binds
GFGRY[pS]R[pS]PTF (peptide, UniProt Q6UWZ7 399-409, looked up, Abraxas C-terminal peptide, as Ab2p (GFGEYpSRpSPTF) with E402R) [Abraxas peptide Ab2p(E402R)] | binds
Y[pS]R[pS]PTF (Abraxas C-terminal peptide without GFGE, printed as YpSRpSPTF; source: synthesized peptide) [Abraxas double phosphorylated peptide Ab2p_short] | binds

Molecular target: the molecule itself
Assay: as above
Details: not given

Binder | binding result
BRCT-Ab2p_short complex (complex, phosphoserine at S404 and S406, as m1: BRCA1 tandem BRCT domains; limits in the Supplemental Information; as m5: Abraxas C-terminal peptide YpSRpSPTF; the 1:1 unit of m1 and m5; source: purified BRCT mixed with peptide at 1:3 molar ratio) VNKRMSMVVSGLTPEEFMLVYKFARKHHITLTNLITEETTHVVMKTDAEFVCERTLKYFLGIAGGKWVVSYFWVTQSIKERKMLNEHDFEVRGDVVNGRNHQGPKRARESQDRKIFRGLEICCYGPFTNMPTDQLEWMVQLCGASVVKELSSFTLGTGVHPIVVVQPDAWTEDNGFHAIGQMCEAPVVTREWVLDSVALYQCQELDTYLIPQIP peptide: YSRSPTF | binds

From paper PMC4747905, “Structure of BRCA1-BRCT/Abraxas Complex Reveals Phosphorylation-Dependent BRCT Dimerization at DNA Damage Sites” (Molecular Cell, 2016)
